Test results as given in article PMC6921046, “Functional Characterization and Structural Analysis of NADH Oxidase Mutants from Thermus thermophilus HB27: Role of Residues 166, 174, and 194 in the Catalytic Properties and Thermostability” (Microorganisms, 2019).

Experiments:
Assay in all cases: purified protein
[1] = substrate: Cc1cc2nc3c(=O)[nH]c(=O)nc-3n(C[C@H](O)[C@H](O)[C@H](O)COP(=O)(O)OP(=O)(O)OC[C@H]3O[C@@H](n4cnc5c(N)ncnc54)[C@H](O)[C@@H]3O)c2cc1C; format: biochemical, Thermus thermophilus; conditions: 10 µM NADH, pH 7, 25 °C, exogenous flavin, varied: cofactor
[2] = substrate: NC(=O)C1=CN([C@@H]2O[C@H](COP(=O)(O)OP(=O)(O)OC[C@H]3O[C@@H](n4cnc5c(N)ncnc54)[C@H](O)[C@@H]3O)[C@@H](O)[C@H]2O)C=CC1; format: biochemical, Thermus thermophilus; conditions: 50 µM FAD, pH 7, 25 °C
[3] = substrate: Cc1cc2nc3c(=O)[nH]c(=O)nc-3n(C[C@H](O)[C@H](O)[C@H](O)COP(=O)(O)O)c2cc1C; format: biochemical, Thermus thermophilus; conditions: 10 µM NADH, pH 7, 25 °C, exogenous flavin, varied: cofactor
[4] = substrate: Cc1cc2nc3c(=O)[nH]c(=O)nc-3n(C[C@H](O)[C@H](O)[C@H](O)CO)c2cc1C; conditions: 10 µM NADH, pH 7, 25 °C, exogenous flavin, varied: cofactor
[5] = authors' cloned wild type, apparent
[6] = authors' cloned wild type K166/H174/Y194, apparent

B1: Tt27-NOX (Thermus thermophilus HB27; H194Y) (protein)
chain: MEATLPVLDAKTAALKRRSIRRYRKDPVPEGLLREILEAALRAPSAWNLQPWRIVVVRDPATKRALREAAFGQAHVEEAPVVLVLYADLEDALAHLDEVIHPGVQGERREAQKQAIQRAFAAMGQEARKAWASGQSYILLGYLLLLLEAYGLGSVPMLGFDPERVKAILGLPSHAAIPALVALGYPAEEGYPSYRLPLERVVLWR
notes: Recombinant, pET22b, E. coli BL21(DE3), heat shock plus PEI-Ag/DS-Ag; homodimer, ~27 kDa monomer
- Km ([1]; K166/H174/H194, apparent): 46 ± 2.3 µM
- Km [1, 5]: 34 ± 1.7 µM
- Km ([2]; K166/H174/H194, apparent): 1.3 ± 0.06 µM
- kcat ([2]; K166/H174/H194, apparent): 27.2 ± 1.4 s⁻¹
- kcat/Km ([2]; K166/H174/H194, apparent): 2.1e+07 ± 1.1e+06 M⁻¹ s⁻¹
- Km [2, 6]: 1.6 ± 0.1 µM
- kcat [2, 6]: 23.3 ± 1.2 s⁻¹
- kcat/Km [2, 6]: 1.46e+07 ± 70000 M⁻¹ s⁻¹
- Km ([3]; K166/H174/H194, apparent): 45 ± 2.3 µM
- Km [3, 5]: 43 ± 2.2 µM
- Km ([4]; K166/H174/H194, apparent): 68.7 ± 3.4 µM
- Km [4, 5]: 69.7 ± 3.5 µM

B2: Tt27-NOX (Thermus thermophilus HB27; H194Y/K166R) (protein)
chain: MEATLPVLDAKTAALKRRSIRRYRKDPVPEGLLREILEAALRAPSAWNLQPWRIVVVRDPATKRALREAAFGQAHVEEAPVVLVLYADLEDALAHLDEVIHPGVQGERREAQKQAIQRAFAAMGQEARKAWASGQSYILLGYLLLLLEAYGLGSVPMLGFDPERVRAILGLPSHAAIPALVALGYPAEEGYPSYRLPLERVVLWR
notes: as for B1
- Km ([1]; R166/H174/Y194, apparent): 30 ± 1.5 µM
- Km ([3]; R166/H174/Y194, apparent): 27 ± 1.4 µM

B3: Tt27-NOX (Thermus thermophilus HB27; H174R/H194Y) (protein)
chain: MEATLPVLDAKTAALKRRSIRRYRKDPVPEGLLREILEAALRAPSAWNLQPWRIVVVRDPATKRALREAAFGQAHVEEAPVVLVLYADLEDALAHLDEVIHPGVQGERREAQKQAIQRAFAAMGQEARKAWASGQSYILLGYLLLLLEAYGLGSVPMLGFDPERVKAILGLPSRAAIPALVALGYPAEEGYPSYRLPLERVVLWR
notes: as for B1
- Km ([1]; K166/R174/Y194, apparent): 127 ± 6.4 µM
- Km ([2]; K166/R174/Y194, apparent): 1.9 ± 0.1 µM
- kcat ([2]; K166/R174/Y194, apparent): 8.6 ± 0.4 s⁻¹
- kcat/Km ([2]; K166/R174/Y194, apparent): 4.5e+06 ± 220000 M⁻¹ s⁻¹
- Km ([3]; K166/R174/Y194, apparent): 15 ± 0.8 µM
- Km ([4]; K166/R174/Y194, apparent): 60 ± 3 µM

B4: R166/R174/H194 variant (Tt8-NOX variant) (Thermus thermophilus HB8; H174R) (protein)
chain: MEATLPVLDAKTAALKRRSIRRYRKDPVPEGLLREILEAALRAPSAWNLQPWRIVVVRDPATKRALREAAFGQAHVEEAPVVLVLYADLEDALAHLDEVIHPGVQGERREAQKQAIQRAFAAMGQEARKAWASGQSYILLGYLLLLLEAYGLGSVPMLGFDPERVRAILGLPSRAAIPALVALGYPAEEGYPSHRLPLERVVLWR
notes: pET22b, E. coli BL21(DE3); homodimer, ~27 kDa monomer
- Km ([1]; R166/R174/H194, apparent): 31.9 ± 1.4 µM
- Km ([2]; R166/R174/H194, apparent): 1.8 ± 0.1 µM
- kcat ([2]; R166/R174/H194, apparent): 15.1 ± 0.8 s⁻¹
- kcat/Km ([2]; R166/R174/H194, apparent): 8.4e+06 ± 420000 M⁻¹ s⁻¹
- Km ([3]; R166/R174/H194, apparent): 23.6 ± 1 µM
- Km ([4]; R166/R174/H194, apparent): 50.8 ± 2.6 µM
